Target: N-ethylmaleimide Sensitive Factor (NSF), Chinese hamster, full-length, His-tag cleaved, reassembled hexamer (Chinese hamster, UniProt P18708 1-744)
Assay: cryo-EM structure

N-ethylmaleimide Sensitive Factor (NSF), Chinese hamster, full-length, His-tag cleaved, reassembled hexamer, sequence (P18708 whole entry): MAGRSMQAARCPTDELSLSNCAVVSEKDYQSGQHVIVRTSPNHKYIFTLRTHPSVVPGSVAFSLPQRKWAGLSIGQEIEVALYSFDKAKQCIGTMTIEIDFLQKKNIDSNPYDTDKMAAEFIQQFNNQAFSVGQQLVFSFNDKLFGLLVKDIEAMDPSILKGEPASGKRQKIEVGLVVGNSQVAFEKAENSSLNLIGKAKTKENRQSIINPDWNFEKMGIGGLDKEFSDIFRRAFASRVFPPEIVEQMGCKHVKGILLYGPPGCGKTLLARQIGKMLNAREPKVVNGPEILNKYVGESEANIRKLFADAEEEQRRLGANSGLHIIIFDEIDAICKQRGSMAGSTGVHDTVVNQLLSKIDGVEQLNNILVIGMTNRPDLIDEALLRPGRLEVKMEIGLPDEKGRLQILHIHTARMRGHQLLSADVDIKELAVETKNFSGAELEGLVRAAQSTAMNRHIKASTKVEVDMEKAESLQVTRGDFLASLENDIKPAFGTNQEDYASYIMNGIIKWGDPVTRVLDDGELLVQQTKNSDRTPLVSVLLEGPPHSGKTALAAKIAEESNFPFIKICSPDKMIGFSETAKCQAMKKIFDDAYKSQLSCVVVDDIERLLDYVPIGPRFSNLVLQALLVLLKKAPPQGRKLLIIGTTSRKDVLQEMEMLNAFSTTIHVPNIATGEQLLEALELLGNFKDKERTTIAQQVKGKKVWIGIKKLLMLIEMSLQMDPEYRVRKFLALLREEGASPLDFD

B1: αSNAP (Soluble NSF Attachment Protein alpha), rat, wild type (natural protein)
chain: MDTSGKQAEAMALLAEAERKVKNSQSFFSGLFGGSSKIEEACEIYARAANMFKMAKNWSAAGNAFCQAAQLHLQLQSKHDAATCFVDAGNAFKKADPQEAINCLMRAIEIYTDMGRFTIAAKHHISIAEIYETELVDVEKAIAHYEQSADYYKGEESNSSANKCLLKVAGYAAQLEQYQKAIDIYEQVGTSAMDSPLLKYSAKDYFFKAALCHFCIDMLNAKLAVQKYEELFPAFSDSRECKLMKKLLEAHEEQNVDSYTESVKEYDSISRLDQWLTTMLLRIKKTIQGDEEDLR
binding result: binds
